Values quoted from earlier work, collected in patent US20200069786A1, “COMPOSITION AND PROCESS FOR PREPARING VACCINE” (TREOS BIO ZRT., priority 2018, published 2020).

B1: SAGE1 (protein, UniProt Q9NXZ1 1-904, looked up)
Sarcoma antigen 1: MQASPLQTSQPTPPEELHAAAYVFTNDGQQMRSDEVNLVATGHQSKKKHSRKSKRHSSSKRRKSMSSWLDKQEDAAVTHSICEERINNGQPVADNVLSTAPPWPDATIAHNIREERMENGQSRTDKVLSTAPPQLVHMAAAGIPSMSTRDLHSTVTHNIREERMENGQPQPDNVLSTGPTGLINMAATPIPAMSARDLYATVTHNVCEQKMENVQPAPDNVLLTLRPRRINMTDTGISPMSTRDPYATITYNVPEEKMEKGQPQPDNILSTASTGLINVAGAGTPAISTNGLYSTVPHNVCEEKMENDQPQPNNVLSTVQPVIIYLTATGIPGMNTRDQYATITHNVCEERVVNNQPLPSNALSTVLPGLAYLATADMPAMSTRDQHATIIHNLREEKKDNSQPTPDNVLSAVTPELINLAGAGIPPMSTRDQYATVNHHVHEARMENGQRKQDNVLSNVLSGLINMAGASIPAMSSRDLYATITHSVREEKMESGKPQTDKVISNDAPQLGHMAAGGIPSMSTKDLYATVTQNVHEERMENNQPQPSYDLSTVLPGLTYLTVAGIPAMSTRDQYATVTHNVHEEKIKNGQAASDNVFSTVPPAFINMAATGVSSMSTRDQYAAVTHNIREEKINNSQPAPGNILSTAPPWLRHMAAAGISSTITRDLYVTATHSVHEEKMTNGQQAPDNSLSTVPPGCINLSGAGISCRSTRDLYATVIHDIQEEEMENDQTPPDGFLSNSDSPELINMTGHCMPPNALDSFSHDFTSLSKDELLYKPDSNEFAVGTKNYSVSAGDPPVTVMSLVETVPNTPQISPAMAKKINDDIKYQLMKEVRRFGQNYERIFILLEEVQGSMKVKRQFVEFTIKEAARFKKVVLIQQLEKALKEIDSHCHLRKVKHMRKR
B2: MART1 (protein, UniProt Q16655 1-118, looked up)
Melanoma antigen recognized …: MPREDAHFIYGYPKKGHGHSYTTAEEAAGIGILTVILGVLLLIGCWYCRRRNGYRALMDKSLHVGTQCALTRRCPQEGFDHRDSKVSLQEKNCEPVVPNAPPAYEKLSAEQSPPPYSP
B3: MAGE-B4 (protein, UniProt O15481 1-346, looked up)
Melanoma-associated antigen B4: MPRGQKSKLRAREKRQRTRGQTQDLKVGQPTAAEKEESPSSSSSVLRDTASSSLAFGIPQEPQREPPTTSAAAAMSCTGSDKGDESQDEENASSSQASTSTERSLKDSLTRKTKMLVQFLLYKYKMKEPTTKAEMLKIISKKYKEHFPEIFRKVSQRTELVFGLALKEVNPTTHSYILVSMLGPNDGNQSSAWTLPRNGLLMPLLSVIFLNGNCAREEEIWEFLNMLGIYDGKRHLIFGEPRKLITQDLVQEKYLEYQQVPNSDPPRYQFLWGPRAHAETSKMKVLEFLAKVNDTTPNNFPLLYEEALRDEEERAGARPRVAARRGTTAMTSAYSRATSSSSSQPM
B4: MAGE-B2 (protein, UniProt O15479 1-319, looked up)
Melanoma-associated antigen B2: MPRGQKSKLRAREKRRKARDETRGLNVPQVTEAEEEEAPCCSSSVSGGAASSSPAAGIPQEPQRAPTTAAAAAAGVSSTKSKKGAKSHQGEKNASSSQASTSTKSPSEDPLTRKSGSLVQFLLYKYKIKKSVTKGEMLKIVGKRFREHFPEILKKASEGLSVVFGLELNKVNPNGHTYTFIDKVDLTDEESLLSSWDFPRRKLLMPLLGVIFLNGNSATEEEIWEFLNMLGVYDGEEHSVFGEPWKLITKDLVQEKYLEYKQVPSSDPPRFQFLWGPRAYAETSKMKVLEFLAKVNGTTPCAFPTHYEEALKDEEKAGV
B5: MAGE-B1 (protein, UniProt P43366 1-347, looked up)
Melanoma-associated antigen B1: MPRGQKSKLRAREKRRKAREETQGLKVAHATAAEKEECPSSSPVLGDTPTSSPAAGIPQKPQGAPPTTTAAAAVSCTESDEGAKCQGEENASFSQATTSTESSVKDPVAWEAGMLMHFILRKYKMREPIMKADMLKVVDEKYKDHFTEILNGASRRLELVFGLDLKEDNPSGHTYTLVSKLNLTNDGNLSNDWDFPRNGLLMPLLGVIFLKGNSATEEEIWKFMNVLGAYDGEEHLIYGEPRKFITQDLVQEKYLKYEQVPNSDPPRYQFLWGPRAYAETTKMKVLEFLAKMNGATPRDFPSHYEEALRDEEERAQVRSSVRARRRTTATTFRARSRAPFSRSSHPM
B6: WBP2NL (protein, UniProt Q6ICG8 1-309, looked up)
Postacrosomal sheath WW …: MAVNQSHTENRRGALIPNGESLLKRSPNVELSFPQRSEGSNVFSGRKTGTLFLTSYRVIFITSCSISDPMLSFMMPFDLMTNLTVEQPVFAANFIKGTIQAAPYGGWEGQATFKLVFRNGDAIEFAQLMVKAASAAARGFPLRTLNDWFSSMGIYVITGEGNMCTPQMPCSVIVYGAPPAGYGAPPPGYGAPPAGYGAQPVGNEGPPVGYRASPVRYGAPPLGYGAPPAGYGAPPLGYGAPPLGYGTPPLGYGAPPLGYGAPPAGNEGPPAGYRASPAGSGARPQESTAAQAPENEASLPSASSSQVHS
B7: ACRBP (protein, UniProt Q8NEB7 26-543, looked up)
Acrosin-binding protein: QDSTQASTPGSPLSPTEYERFFALLTPTWKAETTCRLRATHGCRNPTLVQLDQYENHGLVPDGAVCSNLPYASWFESFCQFTHYRCSNHVYYAKRVLCSQPVSILSPNTLKEIEASAEVSPTTMTSPISPHFTVTERQTFQPWPERLSNNVEELLQSSLSLGGQEQAPEHKQEQGVEHRQEPTQEHKQEEGQKQEEQEEEQEEEGKQEEGQGTKEGREAVSQLQTDSEPKFHSESLSSNPSSFAPRVREVESTPMIMENIQELIRSAQEIDEMNEIYDENSYWRNQNPGSLLQLPHTEALLVLCYSIVENTCIITPTAKAWKYMEEEILGFGKSVCDSLGRRHMSTCALCDFCSLKLEQCHSEASLQRQQCDTSHKTPFVSPLLASQSLSIGNQVGSPESGRFYGLDLYGGLHMDFWCARLATKGCEDVRVSGWLQTEFLSFQDGDFPTKICDTDYIQYPNYCSFKSQQCLMRNRNRKVSRMRCLQNETYSALSPGKSEDVVLRWSQEFSTLTLGQFG
B8: ATAD2 (protein, UniProt Q6PL18 1-1390, looked up)
ATPase family AAA …: MVVLRSSLELHNHSAASATGSLDLSSDFLSLEHIGRRRLRSAGAAQKKPAATTAKAGDGSSVKEVETYHRTRALRSLRKDAQNSSDSSFEKNVEITEQLANGRHFTRQLARQQADKKKEEHREDKVIPVTRSLRARNIVQSTEHLHEDNGDVEVRRSCRIRSRYSGVNQSMLFDKLITNTAEAVLQKMDDMKKMRRQRMRELEDLGVFNETEESNLNMYTRGKQKDIQRTDEETTDNQEGSVESSEEGEDQEHEDDGEDEDDEDDDDDDDDDDDDDDEDDEDEEDGEEENQKRYYLRQRKATVYYQAPLEKPRHQRKPNIFYSGPASPARPRYRLSSAGPRSPYCKRMNRRRHAIHSSDSTSSSSSEDEQHFERRRKRSRNRAINRCLPLNFRKDELKGIYKDRMKIGASLADVDPMQLDSSVRFDSVGGLSNHIAALKEMVVFPLLYPEVFEKFKIQPPRGCLFYGPPGTGKTLVARALANECSQGDKRVAFFMRKGADCLSKWVGESERQLRLLFDQAYQMRPSIIFFDEIDGLAPVRSSRQDQIHSSIVSTLLALMDGLDSRGEIVVIGATNRLDSIDPALRRPGRFDREFLFSLPDKEARKEILKIHTRDWNPKPLDTFLEELAENCVGYCGADIKSICAEAALCALRRRYPQIYTTSEKLQLDLSSINISAKDFEVAMQKMIPASQRAVTSPGQALSTVVKPLLQNTVDKILEALQRVFPHAEFRTNKTLDSDISCPLLESDLAYSDDDVPSVYENGLSQKSSHKAKDNFNFLHLNRNACYQPMSFRPRILIVGEPGFGQGSHLAPAVIHALEKFTVYTLDIPVLFGVSTTSPEETCAQVIREAKRTAPSIVYVPHIHVWWEIVGPTLKATFTTLLQNIPSFAPVLLLATSDKPHSALPEEVQELFIRDYGEIFNVQLPDKEERTKFFEDLILKQAAKPPISKKKAVLQALEVLPVAPPPEPRSLTAEEVKRLEEQEEDTFRELRIFLRNVTHRLAIDKRFRVFTKPVDPDEVPDYVTVIKQPMDLSSVISKIDLHKYLTVKDYLRDIDLICSNALEYNPDRDPGDRLIRHRACALRDTAYAIIKEELDEDFEQLCEEIQESRKKRGCSSSKYAPSYYHVMPKQNSTLVGDKRSDPEQNEKLKTPSTPVACSTPAQLKRKIRKKSNWYLGTIKKRRKISQAKDDSQNAIDHKIESDTEETQDTSVDHNETGNTGESSVEENEKQQNASESKLELRNNSNTCNIENELEDSRKTTACTELRDKIACNGDASSSQIIHISDENEGKEMCVLRMTRARRSQVEQQQLITVEKALAILSQPTPSLVVDHERLKNLLKTVVKKSQNYNIFQLENLYAVISQCIYRHRKDHDKTSLIQKMEQEVENFSCSR
B9: TEKT5 (protein, UniProt Q96M29 1-485, looked up)
Tektin-5: MEFLGTTQTASYCGPKKCCGLTSLPAVQAPVIQECYQPYYLPGYRYLNSWRPSLFYKIANVQTCPDESTSTLRPPTILPTLRSALFSRYSPHDWDQSNQLQVRGAEASRLWASRLTDDSMRLLQDKDQLTHQMQEGTCRNLGQRLSDIGFWKSELSYELDRLLTENQNLETVKRRLECAANEVNCPLQVALECLYHREKRIGIDLVHDNVEKNLIREVDLLKCCQEQMRKLAQRIDIQMRDNRDAQHVLERDLEDKSSAQCIDEKCFNLRNTSDCISFFHGMEKIDGTISVPETWAKFSNDNIKHSQNMRANSIQLREEAEHLFETLSDQMWRQFTDTNLAFNARISEVTDVKNKLQTQLAKTLQEIFQAENTIMLLERSIMAKEGPLKVAQTRLECRTRRPNMELCRDIPQLKLVNEVFTIDDTLQTLKLRLRETQDTLQLLVMTKCRLEHELAIKANTLCIDKEKCMGMRKTFPCTPRLVGHT

test system: TSA; settings: BRAIN

Molecule	TSA Expression Rate (ER) [%]
B1	0
B2	0
B3	0
B4	0
B5	0

same assay, conditions: BREAST

Molecule	TSA Expression Rate (ER) [%]
B6	50
B1	2
B7	40
B8	52

same assay, conditions: HCC

Molecule	TSA Expression Rate (ER) [%]
B9	60
B7	70
B4	61
B5	47

same assay, conditions: LUNG

Molecule	TSA Expression Rate (ER) [%]
B7	20
B4	43
B8	23

same assay, conditions: OVARIAN

Molecule	TSA Expression Rate (ER) [%]
B7	65

same assay, conditions: THYROID

Molecule	TSA Expression Rate (ER) [%]
B1	0
B2	0

same assay, conditions: TSA expression rate in BLADDER cancer

Molecule	Expression Rate (ER) % [%]
B1	12
B7	28
B4	0
B5	0

same assay, conditions: TSA expression rate in CRC

Molecule	Expression Rate (ER) % [%]
B9	50
B7	63
B4	0
B8	58
B5	0

same assay, conditions: TSA expression rate in Esophageal

Molecule	Expression Rate (ER) % [%]
B1	22

same assay, conditions: TSA expression rate in GASTRIC cancer

Molecule	Expression Rate (ER) % [%]
B1	8
B9	40
B7	0
B4	0
B8	43

same assay, conditions: TSA expression rate in HEAD and NECK

Molecule	Expression Rate (ER) % [%]
B1	17
B9	0
B4	45

same assay, conditions: TSA expression rate in Kidney

Molecule	Expression Rate (ER) % [%]
B1	5
B7	0
B4	0
B5	0

same assay, conditions: TSA expression rate in LEUKEMIAS

Molecule	Expression Rate (ER) % [%]
B3	3
B5	5

same assay, conditions: TSA expression rate in LUNG cancer

Molecule	Expression Rate (ER) % [%]
B1	15
B9	10
B3	0
B5	13

same assay, conditions: TSA expression rate in MELANOMA

Molecule	Expression Rate (ER) % [%]
B1	5
B2	89
B4	22
B8	0
B5	19

same assay, conditions: TSA expression rate in PROSTATE cancer

Molecule	Expression Rate (ER) % [%]
B9	11
B7	4
B4	0
B8	0
B5	0
